# Target: Tail-T(ii)-MH chimeric adenovirus spike protein (adenovirus serotype 5; reovirus type 3 Dearing) (UniProt P11818)
substance,measurement,value
anti-His antibody (penta-His MAb; Qiagen),transduction of 293HissFv.rec cells (luciferase activity),90%

# Reference: US20110189234A1
